Test results from patent US10500249B2, “Compositions and methods for preventing or treating diseases, conditions, or processes characterized by aberrant fibroblast proliferation and extracellular matrix deposition” (MOERAE MATRIX, INC., priority 2014, dated 2019).

Columns and labels:
Test in all cases: Kinase Profiling Assay
Format in all cases: biochemical
Details in all cases: 100 μM
[1] = target: T1, MRCKβ (h) (Homo sapiens, UniProt Q9Y5S2)
T1 construct: purchased Millipore
How it was run: (§1)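 Scintillation counting quantifies radiolabeled, positively charged substrate retained on a negatively charged filter after kinase reaction with labeled ATP; inhibitor peptide present.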

[2] = target: PTK5 (h) (Homo sapiens, UniProt P42685)
How it was run: as §1

[3] = target: T2, LKB1 (h) (Homo sapiens, UniProt Q15831)
T2 sequence (Q15831 1-433): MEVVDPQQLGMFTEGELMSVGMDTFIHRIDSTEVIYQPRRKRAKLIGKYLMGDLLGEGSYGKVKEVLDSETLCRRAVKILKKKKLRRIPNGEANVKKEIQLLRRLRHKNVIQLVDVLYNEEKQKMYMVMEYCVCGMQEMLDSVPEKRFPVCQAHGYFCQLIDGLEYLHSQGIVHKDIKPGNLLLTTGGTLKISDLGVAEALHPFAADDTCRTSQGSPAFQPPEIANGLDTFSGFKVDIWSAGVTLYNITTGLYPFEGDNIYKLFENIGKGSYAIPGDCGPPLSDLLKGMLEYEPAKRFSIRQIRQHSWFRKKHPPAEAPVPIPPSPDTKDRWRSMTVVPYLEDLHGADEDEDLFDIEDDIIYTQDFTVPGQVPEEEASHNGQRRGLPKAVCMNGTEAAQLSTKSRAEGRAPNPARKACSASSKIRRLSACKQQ
T2 sequence (Q7RTN6 1-431 partner): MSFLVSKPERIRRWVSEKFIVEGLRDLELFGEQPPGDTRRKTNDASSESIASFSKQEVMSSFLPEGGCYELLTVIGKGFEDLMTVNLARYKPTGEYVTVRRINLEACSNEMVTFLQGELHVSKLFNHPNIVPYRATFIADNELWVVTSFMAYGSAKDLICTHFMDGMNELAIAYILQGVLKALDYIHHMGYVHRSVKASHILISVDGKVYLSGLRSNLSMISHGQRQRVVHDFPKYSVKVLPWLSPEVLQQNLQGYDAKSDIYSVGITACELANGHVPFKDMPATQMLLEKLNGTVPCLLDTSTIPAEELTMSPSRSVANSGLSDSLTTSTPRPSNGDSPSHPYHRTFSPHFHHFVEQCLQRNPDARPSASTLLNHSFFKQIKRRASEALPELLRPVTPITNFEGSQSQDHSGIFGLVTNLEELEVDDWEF
T2 sequence (Q9Y376 1-341 partner): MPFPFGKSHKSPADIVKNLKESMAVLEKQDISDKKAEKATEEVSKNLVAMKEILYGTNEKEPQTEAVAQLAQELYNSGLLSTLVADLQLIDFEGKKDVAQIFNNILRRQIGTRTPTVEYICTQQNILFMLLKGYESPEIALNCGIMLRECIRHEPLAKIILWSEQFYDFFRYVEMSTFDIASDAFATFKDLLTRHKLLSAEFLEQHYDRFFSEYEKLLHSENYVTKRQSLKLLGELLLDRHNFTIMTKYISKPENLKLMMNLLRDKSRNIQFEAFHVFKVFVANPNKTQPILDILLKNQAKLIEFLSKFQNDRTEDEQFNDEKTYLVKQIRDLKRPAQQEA
How it was run: as §1

[4] = target: T3, IRAK1 (h) (Homo sapiens, UniProt P51617)
T3 construct: purchased Millipore
How it was run: as §1

[5] = target: T4, TAO2 (h) (Homo sapiens, UniProt Q9UL54)
T4 sequence (Q9UL54 1-1235): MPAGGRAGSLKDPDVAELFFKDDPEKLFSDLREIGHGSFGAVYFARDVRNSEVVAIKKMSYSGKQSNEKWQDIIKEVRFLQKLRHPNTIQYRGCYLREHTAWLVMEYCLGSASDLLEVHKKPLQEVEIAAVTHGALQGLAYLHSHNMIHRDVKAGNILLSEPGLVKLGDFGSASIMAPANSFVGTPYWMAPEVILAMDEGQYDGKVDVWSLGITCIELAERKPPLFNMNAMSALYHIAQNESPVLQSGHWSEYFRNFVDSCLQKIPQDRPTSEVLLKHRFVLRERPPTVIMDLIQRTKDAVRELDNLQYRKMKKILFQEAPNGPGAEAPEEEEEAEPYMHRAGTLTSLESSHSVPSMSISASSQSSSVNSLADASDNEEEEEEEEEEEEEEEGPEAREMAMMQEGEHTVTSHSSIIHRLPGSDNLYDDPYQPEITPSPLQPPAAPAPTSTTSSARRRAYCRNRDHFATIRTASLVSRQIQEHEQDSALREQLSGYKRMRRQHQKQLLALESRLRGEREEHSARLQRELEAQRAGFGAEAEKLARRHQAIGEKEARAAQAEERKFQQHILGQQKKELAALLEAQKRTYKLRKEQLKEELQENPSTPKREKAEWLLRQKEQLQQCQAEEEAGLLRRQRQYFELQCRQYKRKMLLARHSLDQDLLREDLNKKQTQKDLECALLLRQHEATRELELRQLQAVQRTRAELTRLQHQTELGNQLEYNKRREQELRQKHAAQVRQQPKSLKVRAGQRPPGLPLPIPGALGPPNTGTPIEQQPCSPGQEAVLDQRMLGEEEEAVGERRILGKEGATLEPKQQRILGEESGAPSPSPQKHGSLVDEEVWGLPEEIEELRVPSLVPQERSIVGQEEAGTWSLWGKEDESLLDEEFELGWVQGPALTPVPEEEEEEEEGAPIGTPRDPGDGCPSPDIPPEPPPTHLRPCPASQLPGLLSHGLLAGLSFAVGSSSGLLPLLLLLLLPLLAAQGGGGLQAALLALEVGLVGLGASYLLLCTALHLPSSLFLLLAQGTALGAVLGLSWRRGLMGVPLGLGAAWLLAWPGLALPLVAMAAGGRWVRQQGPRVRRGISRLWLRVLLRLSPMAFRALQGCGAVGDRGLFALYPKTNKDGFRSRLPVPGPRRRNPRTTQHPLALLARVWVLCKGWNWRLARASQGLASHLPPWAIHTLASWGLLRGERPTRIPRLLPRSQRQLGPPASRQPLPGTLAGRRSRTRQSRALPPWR
How it was run: as §1

[6] = target: ZIPK (h) (Homo sapiens, UniProt O43293)
How it was run: as §1

Chain of PTK5 (h) (P42685 whole entry): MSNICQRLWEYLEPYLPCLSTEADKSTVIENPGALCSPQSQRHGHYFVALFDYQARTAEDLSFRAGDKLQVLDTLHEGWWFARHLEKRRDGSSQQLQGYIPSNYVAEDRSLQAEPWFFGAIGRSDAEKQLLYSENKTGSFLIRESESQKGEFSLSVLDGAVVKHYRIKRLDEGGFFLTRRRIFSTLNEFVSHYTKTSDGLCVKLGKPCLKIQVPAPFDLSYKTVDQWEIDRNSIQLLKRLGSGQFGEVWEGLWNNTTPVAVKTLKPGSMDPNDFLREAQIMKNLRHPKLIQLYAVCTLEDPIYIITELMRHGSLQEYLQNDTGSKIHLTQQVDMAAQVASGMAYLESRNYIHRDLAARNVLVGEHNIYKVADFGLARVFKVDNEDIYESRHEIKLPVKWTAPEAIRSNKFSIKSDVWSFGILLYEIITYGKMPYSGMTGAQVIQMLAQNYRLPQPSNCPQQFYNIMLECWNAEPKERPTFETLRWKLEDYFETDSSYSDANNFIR
T3 sequence (P51617 whole entry): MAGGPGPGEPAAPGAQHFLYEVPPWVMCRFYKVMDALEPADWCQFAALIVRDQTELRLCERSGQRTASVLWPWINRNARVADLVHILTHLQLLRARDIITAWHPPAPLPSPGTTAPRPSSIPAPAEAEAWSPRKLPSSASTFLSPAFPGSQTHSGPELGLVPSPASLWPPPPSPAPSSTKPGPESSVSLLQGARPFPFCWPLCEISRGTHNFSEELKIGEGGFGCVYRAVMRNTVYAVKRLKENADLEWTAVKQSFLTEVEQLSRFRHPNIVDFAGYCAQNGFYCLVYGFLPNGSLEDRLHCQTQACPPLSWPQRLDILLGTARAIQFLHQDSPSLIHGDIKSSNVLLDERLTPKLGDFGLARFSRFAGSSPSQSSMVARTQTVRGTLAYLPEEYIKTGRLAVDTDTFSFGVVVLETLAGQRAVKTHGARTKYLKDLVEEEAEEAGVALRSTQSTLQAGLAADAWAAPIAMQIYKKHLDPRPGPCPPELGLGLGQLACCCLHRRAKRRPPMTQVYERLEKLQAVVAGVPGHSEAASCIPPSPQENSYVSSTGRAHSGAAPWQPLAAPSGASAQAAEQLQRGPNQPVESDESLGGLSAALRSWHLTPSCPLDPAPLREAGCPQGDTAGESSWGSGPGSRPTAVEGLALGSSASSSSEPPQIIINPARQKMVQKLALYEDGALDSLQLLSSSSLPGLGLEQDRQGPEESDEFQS
T1 sequence (Q9Y5S2 whole entry): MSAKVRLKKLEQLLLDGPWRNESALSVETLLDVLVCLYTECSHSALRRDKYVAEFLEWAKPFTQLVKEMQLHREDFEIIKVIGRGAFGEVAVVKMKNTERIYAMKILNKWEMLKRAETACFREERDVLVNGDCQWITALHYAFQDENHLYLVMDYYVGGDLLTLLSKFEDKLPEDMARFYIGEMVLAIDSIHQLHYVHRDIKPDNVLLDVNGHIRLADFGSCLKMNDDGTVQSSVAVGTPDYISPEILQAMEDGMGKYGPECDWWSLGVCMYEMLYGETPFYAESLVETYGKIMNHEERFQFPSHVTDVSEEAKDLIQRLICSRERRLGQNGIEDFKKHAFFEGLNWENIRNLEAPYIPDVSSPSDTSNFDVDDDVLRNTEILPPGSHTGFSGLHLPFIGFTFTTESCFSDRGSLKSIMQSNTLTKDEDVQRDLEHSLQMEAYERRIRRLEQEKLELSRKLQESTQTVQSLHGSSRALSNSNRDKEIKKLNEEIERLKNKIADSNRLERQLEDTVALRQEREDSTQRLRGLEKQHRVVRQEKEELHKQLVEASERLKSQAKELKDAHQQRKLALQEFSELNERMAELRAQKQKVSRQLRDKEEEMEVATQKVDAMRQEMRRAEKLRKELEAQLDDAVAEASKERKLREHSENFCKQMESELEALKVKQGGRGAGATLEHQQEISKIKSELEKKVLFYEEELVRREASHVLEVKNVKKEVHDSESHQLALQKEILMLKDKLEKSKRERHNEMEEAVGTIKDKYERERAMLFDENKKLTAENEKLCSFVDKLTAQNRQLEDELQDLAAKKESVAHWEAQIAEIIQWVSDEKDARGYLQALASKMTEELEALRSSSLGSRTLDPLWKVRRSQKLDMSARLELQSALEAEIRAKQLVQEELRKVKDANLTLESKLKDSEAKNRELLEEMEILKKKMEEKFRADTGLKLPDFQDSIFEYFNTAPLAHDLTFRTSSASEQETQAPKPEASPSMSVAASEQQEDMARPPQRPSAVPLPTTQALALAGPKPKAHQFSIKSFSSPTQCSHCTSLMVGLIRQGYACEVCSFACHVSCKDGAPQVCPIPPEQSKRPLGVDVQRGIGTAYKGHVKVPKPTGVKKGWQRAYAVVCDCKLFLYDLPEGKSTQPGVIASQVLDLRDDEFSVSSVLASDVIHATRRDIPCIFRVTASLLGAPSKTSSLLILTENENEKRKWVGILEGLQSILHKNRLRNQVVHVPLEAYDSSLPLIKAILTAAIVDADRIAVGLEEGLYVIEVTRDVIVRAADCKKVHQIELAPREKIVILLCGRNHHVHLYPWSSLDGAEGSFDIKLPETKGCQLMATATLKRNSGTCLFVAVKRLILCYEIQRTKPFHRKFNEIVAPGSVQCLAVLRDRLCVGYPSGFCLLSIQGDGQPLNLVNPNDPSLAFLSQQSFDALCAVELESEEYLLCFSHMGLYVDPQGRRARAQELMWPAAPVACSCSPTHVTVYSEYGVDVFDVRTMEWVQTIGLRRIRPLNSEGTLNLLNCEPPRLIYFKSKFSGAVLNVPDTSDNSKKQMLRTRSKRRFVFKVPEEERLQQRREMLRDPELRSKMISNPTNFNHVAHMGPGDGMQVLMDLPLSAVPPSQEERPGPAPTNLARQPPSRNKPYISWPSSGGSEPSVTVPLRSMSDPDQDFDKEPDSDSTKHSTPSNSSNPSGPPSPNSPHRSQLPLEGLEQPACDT
Chain of ZIPK (h) (O43293 whole entry): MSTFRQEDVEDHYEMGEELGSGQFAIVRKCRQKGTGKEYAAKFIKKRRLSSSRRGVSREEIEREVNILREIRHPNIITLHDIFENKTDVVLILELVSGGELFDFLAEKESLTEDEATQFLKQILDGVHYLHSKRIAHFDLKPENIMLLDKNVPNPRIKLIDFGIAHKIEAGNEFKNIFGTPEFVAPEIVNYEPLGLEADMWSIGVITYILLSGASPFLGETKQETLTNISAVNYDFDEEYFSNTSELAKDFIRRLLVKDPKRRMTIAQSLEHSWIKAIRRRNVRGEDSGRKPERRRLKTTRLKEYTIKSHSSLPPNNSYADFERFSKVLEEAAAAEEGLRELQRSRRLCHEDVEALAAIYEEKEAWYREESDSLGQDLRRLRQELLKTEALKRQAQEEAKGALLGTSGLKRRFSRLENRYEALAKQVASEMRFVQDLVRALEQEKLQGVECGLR

Sequence | % activity [1] | % activity [2] | % activity [3] | % activity [4] | % activity [5] | % activity [6]
FAKLAARLYRKALARQLGVAA [MMI-0300] | 83% | 132% | 101% | 95% | 70% | 28%
HRRIKAWLKKIKALARQLGVAA (Mammalian) [MMI-0500] | −10% | 96% | 51% | 5% | 15% | 1%
KAFAKLAARLYRKALARQLGVAA [MMI-0400] | 71% | 129% | 89% | 93% | 74% | 13%
YARAAARQARAKALNRQLGVA (Mammalian) [MMI-0200] |  | 108% | 99% | 101% | 93% | 67%
